Publication PMC5025654

Legend:
[1] = molecular target: TGF-β1 of the porcine enamel matrix (porcine (endogenous in porcine enamel))
[2] = molecular target: TGF-β1 of the porcine enamel matrix (porcine (endogenous in porcine enamel)); experiment: dynamic light scattering; multi-angle DLS, 25.0 °C, Tris; original (TGF-β1-bound) P103 amelogenin at c > 6.0 mg mL^-1 (Line 1), D extrapolated to D0; RH 3.21 nm, Mw from an empirical RH-Mw relation; complex formed in vivo
[3] = molecular target: P103 amelogenin (porcine); experiment: dynamic light scattering; multi-angle DLS, 25.0 °C, Tris; D extrapolated to zero concentration (D0), RH by Stokes-Einstein, Mw from an empirical RH-Mw relation; P103-1 and P103-2 amelogenins and original P103 amelogenin at c < 4.0 mg mL^-1; RH 2.57 nm
[4] = molecular target: TGF-β1 of the porcine enamel matrix (porcine (endogenous in porcine enamel)); experiment: co-elution on RP-HPLC, TGF-β1 quantified by ALP-inducing activity of HPDL cells; amelogenins as purified from enamel (before the in vitro binding); ng of TGF-β1 per mg of amelogenin calculated from standard CF-hTGF-β1 (0.3 ng mL^-1), after dilution correction; complexes formed in vivo
[5] = molecular target: carrier-free recombinant human TGF-β1 (human); experiment: in vitro binding, RP-HPLC, TGF-β1 quantified by ALP-inducing activity of HPDL cells; purified amelogenin mixed with CF-hTGF-β1 or rh-latent TGF-β1, fractions from RP-HPLC tested in the ALP-HPDL system; ng per mg of amelogenin calculated from standard CF-hTGF-β1 (0.3 ng mL^-1), after dilution correction; details in the Supplementary Methods
[6] = molecular target: TGFBR1 of porcine enamel organ epithelia (porcine (endogenous in enamel organ epithelia)) (UniProt Q5CD18)
TGFBR1 of porcine enamel organ epithelia (porcine (endogenous in enamel organ epithelia)), sequence (Q5CD18 30-503): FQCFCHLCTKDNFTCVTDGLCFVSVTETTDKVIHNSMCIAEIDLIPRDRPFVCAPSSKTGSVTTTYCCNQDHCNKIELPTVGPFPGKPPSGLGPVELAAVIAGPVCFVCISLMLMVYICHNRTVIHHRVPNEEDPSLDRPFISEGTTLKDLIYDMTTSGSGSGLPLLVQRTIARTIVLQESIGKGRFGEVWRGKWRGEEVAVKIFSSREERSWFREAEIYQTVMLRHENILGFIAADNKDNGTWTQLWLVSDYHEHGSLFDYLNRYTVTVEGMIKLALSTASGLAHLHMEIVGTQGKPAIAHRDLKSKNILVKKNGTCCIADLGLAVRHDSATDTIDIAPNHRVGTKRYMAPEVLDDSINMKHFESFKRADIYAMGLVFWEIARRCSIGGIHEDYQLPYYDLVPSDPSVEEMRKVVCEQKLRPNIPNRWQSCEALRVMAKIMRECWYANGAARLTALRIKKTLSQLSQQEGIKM

TGF-β1 of the porcine enamel matrix (porcine (endogenous in porcine enamel)), sequence (P07200 30-390): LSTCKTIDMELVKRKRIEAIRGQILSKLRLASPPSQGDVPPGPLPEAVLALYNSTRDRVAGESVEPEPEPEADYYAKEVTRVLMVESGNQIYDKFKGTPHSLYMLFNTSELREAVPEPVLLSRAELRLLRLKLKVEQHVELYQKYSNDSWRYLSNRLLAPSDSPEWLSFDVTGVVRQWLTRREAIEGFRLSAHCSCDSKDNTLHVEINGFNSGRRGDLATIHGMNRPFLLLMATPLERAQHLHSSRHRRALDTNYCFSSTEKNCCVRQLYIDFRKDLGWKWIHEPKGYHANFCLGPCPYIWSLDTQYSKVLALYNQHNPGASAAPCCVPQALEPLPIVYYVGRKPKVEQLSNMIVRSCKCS
P103 amelogenin-TGF-β1 complex, sequence (P07200 whole entry, looked up, one chain of several): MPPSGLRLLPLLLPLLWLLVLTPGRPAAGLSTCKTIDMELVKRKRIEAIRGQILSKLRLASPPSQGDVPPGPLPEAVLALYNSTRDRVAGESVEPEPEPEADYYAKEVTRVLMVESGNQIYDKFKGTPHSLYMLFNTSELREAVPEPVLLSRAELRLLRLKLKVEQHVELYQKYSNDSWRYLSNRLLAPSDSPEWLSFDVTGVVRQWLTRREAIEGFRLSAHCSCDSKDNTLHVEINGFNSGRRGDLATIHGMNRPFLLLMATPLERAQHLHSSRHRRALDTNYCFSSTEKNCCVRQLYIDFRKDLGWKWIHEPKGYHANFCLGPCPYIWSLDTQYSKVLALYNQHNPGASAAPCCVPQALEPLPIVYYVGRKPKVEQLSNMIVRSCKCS

| ALP-inducing activity of HPDL cells left after digestion of the P103 amelogenin-TGF-β1 complex with pKLK4 for 20 h, compared to the level before digestion (CF-hTGF-β1 alone: 8%) [1] [%] | stoichiometry N (amelogenin trimer per TGF-β homodimer) [2] | stoichiometry N [3] | original TGF-β1, ng against 1 mg of amelogenin [4] [ng] | bound TGF-β1, ng against 1 mg of amelogenin [5] [ng] | TR-FRET TGFBR1 kinase assay (phosphorylation of ULight-Topo IIα peptide, 5 mM ATP), FRET signal after 12 h with the complex added, against the control without addition (% higher than the control) [6] | Substance |
| --- | --- | --- | --- | --- | --- | --- |
| 70 | 1 | 3 | 0.797 | 1.08 | – | P103 amelogenin (domain or fragment) |
| – | – | – | – | – | 5 | P103 amelogenin-TGF-β1 complex (from UniProt P07200 279-390) |
| – | – | – | 0.263 | 1.06 | – | P148 amelogenin (domain or fragment) |
| – | – | – | 0.201 | 1.17 | – | P162 amelogenin (domain or fragment) |
